Residue numbers refer to the chain shown, from its start.

T1: human FcγRIIb (human, UniProt P31994 43-217, limits assumed)
T1 construct: GST-tagged
T1 sequence (looked up): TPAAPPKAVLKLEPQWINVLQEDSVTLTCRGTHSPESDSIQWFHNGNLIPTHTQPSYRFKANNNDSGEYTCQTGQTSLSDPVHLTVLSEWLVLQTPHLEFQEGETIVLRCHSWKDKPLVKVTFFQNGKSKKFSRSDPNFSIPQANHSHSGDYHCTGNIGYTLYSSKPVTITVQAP

T2: recombinant cyno IL1RAP ECD (cynomolgus monkey, UniProt P59822 21-367 (rhesus entry))
T2 construct: also called rcynoIL1RAP
T2 sequence: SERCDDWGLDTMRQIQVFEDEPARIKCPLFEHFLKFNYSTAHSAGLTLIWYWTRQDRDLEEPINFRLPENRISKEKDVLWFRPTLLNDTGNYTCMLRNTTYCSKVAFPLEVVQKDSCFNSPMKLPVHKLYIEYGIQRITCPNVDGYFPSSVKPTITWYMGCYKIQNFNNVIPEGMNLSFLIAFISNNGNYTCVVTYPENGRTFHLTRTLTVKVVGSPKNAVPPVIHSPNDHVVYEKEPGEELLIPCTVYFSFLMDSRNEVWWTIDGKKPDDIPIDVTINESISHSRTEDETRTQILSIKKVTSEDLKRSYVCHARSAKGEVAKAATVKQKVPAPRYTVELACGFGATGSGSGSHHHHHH

T3: recombinant human IL1RAP ECD (human, UniProt Q9NPH3 21-367)
T3 construct: His-tagged; also called hIL1RAP-ECD; rhuIL1RAP
T3 sequence: T2 sequence with F183L, P273T, T326K

T4: rat IL1RAP ECD displayed on HEK-293F cells (pDisplay) (rat, UniProt Q63621 21-367)
T4 sequence: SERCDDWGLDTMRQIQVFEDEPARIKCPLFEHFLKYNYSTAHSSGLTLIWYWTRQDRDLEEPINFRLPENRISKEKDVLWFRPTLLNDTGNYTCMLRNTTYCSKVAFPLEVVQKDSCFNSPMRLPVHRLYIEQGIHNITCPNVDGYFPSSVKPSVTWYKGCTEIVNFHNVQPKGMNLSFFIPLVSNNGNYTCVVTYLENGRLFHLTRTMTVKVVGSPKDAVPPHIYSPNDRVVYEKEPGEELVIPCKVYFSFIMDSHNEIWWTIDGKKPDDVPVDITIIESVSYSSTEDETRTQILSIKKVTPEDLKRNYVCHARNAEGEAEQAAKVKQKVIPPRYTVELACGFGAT

T5: mouse IL1RAP ECD displayed on HEK-293F cells (pDisplay) (mouse, UniProt Q61730 21-367)
T5 sequence: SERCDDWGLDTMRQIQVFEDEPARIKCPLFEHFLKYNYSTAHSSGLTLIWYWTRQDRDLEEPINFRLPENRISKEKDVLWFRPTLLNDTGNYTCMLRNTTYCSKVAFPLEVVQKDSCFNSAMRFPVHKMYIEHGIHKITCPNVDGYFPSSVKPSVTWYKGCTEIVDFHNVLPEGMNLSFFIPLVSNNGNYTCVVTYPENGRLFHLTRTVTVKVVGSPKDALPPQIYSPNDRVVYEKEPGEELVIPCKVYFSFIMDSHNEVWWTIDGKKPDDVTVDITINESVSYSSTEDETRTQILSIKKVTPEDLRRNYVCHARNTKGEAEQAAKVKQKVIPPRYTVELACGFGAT

T6: cyno IL1RAP ECD displayed on HEK-293F cells (pDisplay) (cynomolgus monkey, UniProt P59822 21-367 (rhesus entry))
T6 sequence: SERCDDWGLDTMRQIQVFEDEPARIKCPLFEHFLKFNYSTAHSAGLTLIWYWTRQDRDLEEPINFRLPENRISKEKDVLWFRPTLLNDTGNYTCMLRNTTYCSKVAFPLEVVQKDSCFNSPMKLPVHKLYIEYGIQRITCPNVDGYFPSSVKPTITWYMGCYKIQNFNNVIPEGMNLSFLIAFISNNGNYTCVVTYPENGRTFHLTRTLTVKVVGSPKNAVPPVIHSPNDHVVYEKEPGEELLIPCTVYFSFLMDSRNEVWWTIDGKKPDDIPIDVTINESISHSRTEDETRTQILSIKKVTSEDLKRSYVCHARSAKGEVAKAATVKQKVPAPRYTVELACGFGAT

B1: IAPB57 (antibody, human IgG4 S228P, kappa, F234A L235A)
heavy: not shown
light: DIQLTQSPSFLSASVGDRVTITCRASQGISSYLAWYQQKPGKAPKLLIYAASTLQSGVPSRFSGSGSGTEFTLTISSLQPEDFATYYCQQVNSYPLTFGGGTKVEIKRTVAAPSVFIFPPSDEQLKSGTASVVCLLNNFYPREAKVQWKVDNALQSGNSQESVTEQDSKDSTYSLSSTLTLSKADYEKHKVYACEVTHQGLSSPVTKSFNRGEC
notes: IgG4-PAA; whole chains
B2: CD3B219 - CD3B219 Parental, IgG4 PAA (antibody)
heavy chain: EVQLVESGGGLVQPGGSLRLSCAASGFTFNTYAMNWVRQAPGKGLEWVARIRSKYNNYATYYAASVKGRFTISRDDSKNSLYLQMNSLKTEDTAVYYCARHGNFGNSYVSWFAYWGQGTLVTVSSASTKGPSVFPLAPCSRSTSESTAALGCLVKDYFPEPVTVSWNSGALTSGVHTFPAVLQSSGLYSLSSVVTVPSSSLGTKTYTCNVDHKPSNTKVDKRVESKYGPPCPPCPAPEAAGGPSVFLFPPKPKDTLMISRTPEVTCVVVDVSQEDPEVQFNWYVDGVEVHNAKTKPREEQFNSTYRVVSVLTVLHQDWLNGKEYKCKVSNKGLPSSIEKTISKAKGQPREPQVYTLPPSQEEMTKNQVSLTCLVKGFYPSDIAVEWESNGQPENNYKTTPPVLDSDGSFLLYSKLTVDKSRWQEGNVFSCSVMHEALHNHYTQKSLSLSLGK
light chain: QTVVTQEPSLTVSPGGTVTLTCRSSTGAVTTSNYANWVQQKPGQAPRGLIGGTNKRAPGTPARFSGSLLGGKAALTLSGVQPEDEAEYYCALWYSNLWVFGGGTKLTVLGQPKAAPSVTLFPPSSEELQANKATLVCLISDFYPGAVTVAWKADSSPVKAGVETTTPSKQSNNKYAASSYLSLTPEQWKSHRSYSCQVTHEGSTVEKTVAPTECS
B3: IAPB17 (antibody, human IgG4 S228P, kappa, F234A L235A, V domains shown)
VH: QVQLVQSGAEVKKPGSSVKVSCKASGGTFSSYAISWVRQAPGQGLEWMGGIIPIFGNANYAQKFQGRVTITADESTSTAYMELSSLRSEDTAVYYCARTIIYLDYVHILDYWGQGTLVTVSS
VL: not shown
notes: IgG4-PAA; whole chains
B4: IAPB47 (antibody, human IgG4 S228P, kappa, F234A L235A, V domains shown)
VH: EVQLVQSGAEVKKPGESLKISCKGSGYSFTSYWIGWVRQMPGKGLEWMGIIYPSDSYTRYSPSFQGQVTISADKSISTAYLQWSSLKASDTAMYYCARRNSAENYADLDYWGQGTLVTVSS
VL: EIVLTQSPGTLSLSPGERATLSCRASQSISNDLNWYQQKPGKAPKLLIYYASSLQSGVPSRFSGSGSGTDFTLTINSLQPEDFATYYCQQSFTAPLTFGQGTKVEIKR
notes: IgG4-PAA; whole chains
B5: IAPB09 (antibody, human IgG4 S228P, kappa, F234A L235A, V domains shown)
VH: QVQLVQSGAEVKKPGSSVKVSCKASGGTFSSYAISWVRQAPGQGLEWMGWISPIFGTANYAQKFQGRVTITADESTSTAYMELSSLRSEDTAVYYCARRYDNFARSGDLDYWGQGTLVTVSS
VL: not shown
notes: IgG4-PAA; whole chains; also called IAPB9

The target of one assay is T1, human FcγRIIb. Briefly: AlphaScreen competition, human FcγRIIb (n=1); displaced: biotinylated control mAb B21M hIgG1 WT; pH 7.2. The source says: (§1) Measurements were made using an AlphaScreen™ assay (Amplified Luminescent Proximity Homogeneous Assay (ALPHA), PerkinElmer, Wellesley, Mass.), a bead-based luminescent proximity assay. Laser excitation of a donor bead excites oxygen, which if sufficiently close to the acceptor bead generates a cascade of chemiluminescent events, ultimately leading to fluorescence emission at 520-620 nm.
Take B1: the binding result was “binds”.

For B2, the binding result was “binds”.

The next assay concerns the target T2, recombinant cyno IL1RAP ECD. Briefly: recombinant protein.
For the molecule B3, the binding result is given as “binds”.

On to B4, for which the binding result is “binds”.

Turning to B1, the binding result was “binds”.

As for B5, the binding result is given as “binds”.

The next assay concerns the target T7, human FcγRI (human, UniProt P12314 16-292, limits assumed).
T7 construct: GST-tagged, on glutathione acceptor beads; also called FcγRT [sic]
Briefly: AlphaScreen competition, human FcγRI (n=1); displaced: biotinylated control mAb B21M hIgG1 AlaAla; pH 7.2.
Text: as §1
For the molecule B1, the “IC50 (read off the curve)” value was roughly 100 nM.

In the case of B2, the “IC50 (read off the curve)” value was roughly 60 nM.

The target in another assay is T3, recombinant human IL1RAP ECD. Briefly: SPR, summary. On the technique in general: SPR reads the build-up and loss of mass on a sensor chip optically.
On to B3, for which the Kd (in general, the free concentration of one partner at which half of the binding sites on the other are occupied at equilibrium, for simple one-to-one binding) was determined as 8.51 nM.

Turning to B4, the Kd turned out to be 1.24 nM.

As to B1, the Kd was 0.16 nM.

As to B5, the Kd is 6.59 nM.

The target of another assay is T8, human FcRn (human, UniProt P55899 24-297; P61769 21-119, limits assumed).
T8 construct: GST-tagged
Briefly: AlphaScreen competition, human FcRn (n=1); displaced: biotinylated control mAb B21M WT IgG1 (m27); pH 6.0.
Text: as §1
(In Alpha technology, singlet oxygen from a donor bead excites a nearby acceptor bead.)
With B1, the “IC50 (read off the curve)” value is roughly 200 nM.

In the case of B2, the “IC50 (read off the curve)” value is roughly 200 nM.

The next assay deals with T3, recombinant human IL1RAP ECD. Briefly: SPR (ProteOn). How it is done: The rates of IL1RAP ECD association and dissociation were measured for each variant. The biosensor surface was prepared by covalently coupling Goat anti-Human IgG (Fc) to the surface of a GLC chip (BioRad) using the manufacturer instructions for amine-coupling chemistry. […] The RU immobilized also included a goat anti-mouse Fc antibody that was added to capture other antibodies not included in the ones reported here. Since the mixture was 1:1 about 50% of these RU immobilized are expected to be goat anti-human Fc. The kinetic experiments were performed at 25° C. in running buffer (PBS pH 7.4, 0.005% P20, 3 mM EDTA). […] (1:3) serial dilutions of human IL1RAP ECD, starting at 400 nM were prepared in running buffer. […] The reference spots (Goat anti-Human IgG (Fc)-modified surface) containing no candidate captured were used as a reference surface. Capture of mAb was followed by a 3 minute injection (association phase) of antigen at 40 μL/min, followed by 10 minutes of buffer flow (dissociation phase). […] Data was processed on the instrument software. Double reference subtraction of the data was performed by subtracting the curves generated by buffer injection from the reference-subtracted curves for analyte injections. Kinetic analysis of the data was performed using 1:1 Langmuir binding model with group fit.
On to B3, for which the equilibrium dissociation constant (Kd) was 8.51 nM; the koff – broadly, the rate constant with which the complex falls apart – was 0.00719 s⁻¹; the on-rate (kon) (commonly the rate constant with which the complex forms) came to 844000 M⁻¹ s⁻¹.

B4: the Kd worked out at 1.24 nM, the koff came to 0.000811 s⁻¹ and the kon is 653000 M⁻¹ s⁻¹.

Consider B5, for which the equilibrium dissociation constant (Kd) was determined as 6.59 nM, the off-rate constant (koff) was 0.00379 s⁻¹ and the kon was found to be 574000 M⁻¹ s⁻¹.

The target of the next assay is T4, rat IL1RAP ECD displayed on HEK-293F …. Briefly: HEK-293F cells (MSD).
Turning to B3, the binding result is “binds”.

As for B4, the binding result is given as “binds”.

As to B5, the binding result is reported as “binds”.

A further assay has as its target T5, mouse IL1RAP ECD displayed on HEK-293F …. Briefly: HEK-293F cells (MSD).
B3: the binding result is on record as “binds”.

Turning to B4, the binding result is “binds”.

Consider B5, for which the binding result is reported as “binds”.

The target in a further assay is T6, cyno IL1RAP ECD displayed on HEK-293F …. Briefly: HEK-293F cells (MSD).
In the case of B3, the binding result is listed as “binds”.

As for B4, the binding result was “binds”.

With B1, the binding result is recorded as “binds”.

Regarding B5, the binding result is on record as “binds”.

For the origin of these results see patent US20190270826A1 (Janssen / Centocor, published 2019).
